Results on 1 variant are retold here after paper PMC8126939, “The TBC1D31/praja2 complex controls primary ciliogenesis through PKA‐directed OFD1 ubiquitylation” (The EMBO Journal, 2021).

B1: peptide of the C-terminus segment of TBC1D31 [human] / GST-praja2_(530–570) [modified: fluorescent dye on primary amines (NHS-ester labelling); fluorescent dye on primary amines (NHS-ester labelling)] [human] (parent complex)
chain 1: WDTTGQNLIKKVRNLRQRLTARARHRCQTPHLLAA
chain 2: LDGNNNLEDDSSVSEDLDVDWSLFDGFADGLGVAEAISYVD

In this test the parent is B1. As to the kind of experiment: microscale thermophoresis (MST); parent: 3.7e+04 nM. On the technique in general: Microscale thermophoresis detects binding through changes in fluorescence in a small temperature gradient.
As usually defined, the Kd is a measure of binding affinity in units of concentration. In the case of chain 1 R13A, chain 1 R16A, the Kd was around 65 µM.
